Test results reported in publication PMC12093943, “The TetR-like regulator Sco4385 and Crp-like regulator Sco3571 modulate heterologous production of antibiotics in Streptomyces coelicolor M512” (Applied and Environmental Microbiology, 2025).

Biological target: the molecule itself
Test: SEC-MALS; Superose 6 increase 10/300 GL, room temperature, running buffer 50 mM Tris-HCl (pH 7.5), 250 mM NaCl, flow rate 0.4 mL/minute; MiniDAWN Treos

B1: TetR-family regulator Sco4385 (His-tagged) (natural protein, Streptomyces coelicolor M512, UniProt Q9K3V9 1-202, looked up)
chain: MNAADRTERVPKQDRSRATRQRLLEAAVACLAERGWAGSTVSVVAEHAGVSRGAAQHHFPTREDLFTAAVEYVAEERSIALRALFPEGAAADDRRAVVAALVDLYTGPLFRAALHLWVAASNEEQLRGRVTELEARVGRESHRIAVELLGADETRPGARETVQGLLDMARGLGLANLLTDDGARRERVVEQWARLLDAALAQ
notes: TetR-family regulator Sco4385 of Streptomyces coelicolor M512; Expressed from the vector pHis8 (plasmid pSW21); No tag cleavage is described; also called TFR Sco4385; TetR-type regulator Sco4385; source: E. coli BL21 DE3, purified (Ni-NTA chromatography, size exclusion chromatography)
For B1, the “stoichiometry N” value was 2.
